Assay results from patent US20260266848A1, “COMPOSITIONS AND METHODS FOR DIAGNOSING AND TREATING DYSTONIA” (Duke University, priority 2023, published 2026).

B1: TUBB1 (protein, UniProt Q9H4B7 1-451, looked up)
Tubulin beta-1 chain: MREIVHIQIGQCGNQIGAKFWEMIGEEHGIDLAGSDRGASALQLERISVYYNEAYGRKYVPRAVLVDLEPGTMDSIRSSKLGALFQPDSFVHGNSGAGNNWAKGHYTEGAELIENVLEVVRHESESCDCLQGFQIVHSLGGGTGSGMGTLLMNKIREEYPDRIMNSFSVMPSPKVSDTVVEPYNAVLSIHQLIENADACFCIDNEALYDICFRTLKLTTPTYGDLNHLVSLTMSGITTSLRFPGQLNADLRKLAVNMVPFPRLHFFMPGFAPLTAQGSQQYRALSVAELTQQMFDARNTMAACDLRRGRYLTVACIFRGKMSTKEVDQQLLSVQTRNSSCFVEWIPNNVKVAVCDIPPRGLSMAATFIGNNTAIQEIFNRVSEHFSAMFKRKAFVHWYTSEGMDINEFGEAENNIHDLVSEYQQFQDAKAVLEEDEEVTEEAEMEPEDKGH
B2: PSMD12 (protein, UniProt O00232 2-456, looked up)
26S proteasome non-ATPase …: ADGGSERADGRIVKMEVDYSATVDQRLPECAKLAKEGRLQEVIETLLSLEKQTRTASDMVSTSRILVAVVKMCYEAKEWDLLNENIMLLSKRRSQLKQAVAKMVQQCCTYVEEITDLPIKLRLIDTLRMVTEGKIYVEIERARLTKTLATIKEQNGDVKEAASILQELQVETYGSMEKKERVEFILEQMRLCLAVKDYIRTQIISKKINTKFFQEENTEKLKLKYYNLMIQLDQHEGSYLSICKHYRAIYDTPCIQAESEKWQQALKSVVLYVILAPFDNEQSDLVHRISGDKKLEEIPKYKDLLKLFTTMELMRWSTLVEDYGMELRKGSLESPATDVFGSTEEGEKRWKDLKNRVVEHNIRIMAKYYTRITMKRMAQLLDLSVDESEAFLSNLVVNKTIFAKVDRLAGIINFQRPKDPNNLLNDWSQKLNSLMSLVNKTTHLIAKEEMIHNLQ
B3: SEC31A (protein, UniProt O94979 1-1220, looked up)
Protein transport protein …: MKLKEVDRTAMQAWSPAQNHPIYLATGTSAQQLDATFSTNASLEIFELDLSDPSLDMKSCATFSSSHRYHKLIWGPYKMDSKGDVSGVLIAGGENGNIILYDPSKIIAGDKEVVIAQNDKHTGPVRALDVNIFQTNLVASGANESEIYIWDLNNFATPMTPGAKTQPPEDISCIAWNRQVQHILASASPSGRATVWDLRKNEPIIKVSDHSNRMHCSGLAWHPDVATQMVLASEDDRLPVIQMWDLRFASSPLRVLENHARGILAIAWSMADPELLLSCGKDAKILCSNPNTGEVLYELPTNTQWCFDIQWCPRNPAVLSAASFDGRISVYSIMGGSTDGLRQKQVDKLSSSFGNLDPFGTGQPLPPLQIPQQTAQHSIVLPLKKPPKWIRRPVGASFSFGGKLVTFENVRMPSHQGAEQQQQQHHVFISQVVTEKEFLSRSDQLQQAVQSQGFINYCQKKIDASQTEFEKNVWSFLKVNFEDDSRGKYLELLGYRKEDLGKKIALALNKVDGANVALKDSDQVAQSDGEESPAAEEQLLGEHIKEEKEESEFLPSSGGTFNISVSGDIDGLITQALLTGNFESAVDLCLHDNRMADAIILAIAGGQELLARTQKKYFAKSQSKITRLITAVVMKNWKEIVESCDLKNWREALAAVLTYAKPDEFSALCDLLGTRLENEGDSLLQTQACLCYICAGNVEKLVACWTKAQDGSHPLSLQDLIEKVVILRKAVQLTQAMDTSTVGVLLAAKMSQYANLLAAQGSIAAALAFLPDNTNQPNIMQLRDRLCRAQGEPVAGHESPKIPYEKQQLPKGRPGPVAGHHQMPRVQTQQYYPHGENPPPPGFIMHGNVNPNAAGQLPTSPGHMHTQVPPYPQPQPYQPAQPYPFGTGGSAMYRPQQPVAPPTSNAYPNTPYISSASSYTGQSQLYAAQHQASSPTSSPATSFPPPPSSGASFQHGGPGAPPSSSAYALPPGTTGTLPAASELPASQRTGPQNGWNDPPALNRVPKKKKMPENFMPPVPITSPIMNPLGDPQSQMLQQQPSAPVPLSSQSSFPQPHLPGGQPFHGVQQPLGQTGMPPSFSKPNIEGAPGAPIGNTFQHVQSLPTKKITKKPIPDEHLILKTTFEDLIQRCLSSATDPQTKRKLDDASKRLEFLYDKLREQTLSPTITSGLHNIARSIETRNYSEGLTMHTHIVSTSNFSETSAFMPVLKVVLTQANKLGV
B4: RBM3 (protein, UniProt P98179 1-157, looked up)
RNA-binding protein 3: MSSEEGKLFVGGLNFNTDEQALEDHFSSFGPISEVVVVKDRETQRSRGFGFITFTNPEHASVAMRAMNGESLDGRQIRVDHAGKSARGTRGGGFGAHGRGRSYSRGGGDQGYGSGRYYDSRPGGYGYGYGRSRDYNGRNQGGYDRYSGGNYRDNYDN
B5: EHD4 (protein, UniProt Q9H223 1-541, looked up)
EH domain-containing protein 4: MFSWMGRQAGGRERAGGADAVQTVTGGLRSLYLRKVLPLEEAYRFHEFHSPALEDADFENKPMILLVGQYSTGKTTFIRYLLEQDFPGMRIGPEPTTDSFIAVMYGETEGSTPGNALVVDPKKPFRKLSRFGNAFLNRFMCSQLPNQVLKSISVIDSPGILSGEKQRISRGYDFCQVLQWFAERVDRIILLFDAHKLDISDEFSEAIKAFRGQDDKIRVVLNKADQVDTQQLMRVYGALMWSLGKVINTPEVLRVYIGSFWAQPLQNTDNRRLFEAEAQDLFRDIQSLPQKAAVRKLNDLIKRARLAKVHAYIISYLKKEMPSVFGKENKKRELISRLPEIYIQLQREYQISAGDFPEVKAMQEQLENYDFTKFHSLKPKLIEAVDNMLSNKISPLMNLISQEETSTPTQLVQGGAFDGTTEGPFNQGYGEGAKEGADEEEWVVAKDKPVYDELFYTLSPINGKISGVNAKKEMVTSKLPNSVLGKIWKLADCDCDGMLDEEEFALAKHLIKIKLDGYELPSSLPPHLVPPSHRKSLPKAD
B6: ANO6 (protein, UniProt Q4KMQ2 1-910, looked up)
Anoctamin-6: MKKMSRNVLLQMEEEEDDDDGDIVLENLGQTIVPDLGSLESQHDFRTPEFEEFNGKPDSLFFNDGQRRIDFVLVYEDESRKETNKKGTNEKQRRKRQAYESNLICHGLQLEATRSVLDDKLVFVKVHAPWEVLCTYAEIMHIKLPLKPNDLKNRSSAFGTLNWFTKVLSVDESIIKPEQEFFTAPFEKNRMNDFYIVDRDAFFNPATRSRIVYFILSRVKYQVINNVSKFGINRLVNSGIYKAAFPLHDCKFRRQSEDPSCPNERYLLYREWAHPRSIYKKQPLDLIRKYYGEKIGIYFAWLGYYTQMLLLAAVVGVACFLYGYLNQDNCTWSKEVCHPDIGGKIIMCPQCDRLCPFWKLNITCESSKKLCIFDSFGTLVFAVFMGVWVTLFLEFWKRRQAELEYEWDTVELQQEEQARPEYEARCTHVVINEITQEEERIPFTAWGKCIRITLCASAVFFWILLIIASVIGIIVYRLSVFIVFSAKLPKNINGTDPIQKYLTPQTATSITASIISFIIIMILNTIYEKVAIMITNFELPRTQTDYENSLTMKMFLFQFVNYYSSCFYIAFFKGKFVGYPGDPVYWLGKYRNEECDPGGCLLELTTQLTIIMGGKAIWNNIQEVLLPWIMNLIGRFHRVSGSEKITPRWEQDYHLQPMGKLGLFYEYLEMIIQFGFVTLFVASFPLAPLLALVNNILEIRVDAWKLTTQFRRLVPEKAQDIGAWQPIMQGIAILAVVTNAMIIAFTSDMIPRLVYYWSFSVPPYGDHTSYTMEGYINNTLSIFKVADFKNKSKGNPYSDLGNHTTCRYRDFRYPPGHPQEYKHNIYYWHVIAAKLAFIIVMEHVIYSVKFFISYAIPDVSKRTKSKIQREKYLTQKLLHENHLKDMTKNMGVIAERMIEAVDNNLRPKSE
B7: MARS1 (protein, UniProt P56192 1-900, looked up)
Methionine--tRNA ligase, …: MRLFVSDGVPGCLPVLAAAGRARGRAEVLISTVGPEDCVVPFLTRPKVPVLQLDSGNYLFSTSAICRYFFLLSGWEQDDLTNQWLEWEATELQPALSAALYYLVVQGKKGEDVLGSVRRALTHIDHSLSRQNCPFLAGETESLADIVLWGALYPLLQDPAYLPEELSALHSWFQTLSTQEPCQRAAETVLKQQGVLALRPYLQKQPQPSPAEGRAVTNEPEEEELATLSEEEIAMAVTAWEKGLESLPPLRPQQNPVLPVAGERNVLITSALPYVNNVPHLGNIIGCVLSADVFARYSRLRQWNTLYLCGTDEYGTATETKALEEGLTPQEICDKYHIIHADIYRWFNISFDIFGRTTTPQQTKITQDIFQQLLKRGFVLQDTVEQLRCEHCARFLADRFVEGVCPFCGYEEARGDQCDKCGKLINAVELKKPQCKVCRSCPVVQSSQHLFLDLPKLEKRLEEWLGRTLPGSDWTPNAQFITRSWLRDGLKPRCITRDLKWGTPVPLEGFEDKVFYVWFDATIGYLSITANYTDQWERWWKNPEQVDLYQFMAKDNVPFHSLVFPCSALGAEDNYTLVSHLIATEYLNYEDGKFSKSRGVGVFGDMAQDTGIPADIWRFYLLYIRPEGQDSAFSWTDLLLKNNSELLNNLGNFINRAGMFVSKFFGGYVPEMVLTPDDQRLLAHVTLELQHYHQLLEKVRIRDALRSILTISRHGNQYIQVNEPWKRIKGSEADRQRAGTVTGLAVNIAALLSVMLQPYMPTVSATIQAQLQLPPPACSILLTNFLCTLPAGHQIGTVSPLFQKLENDQIESLRQRFGGGQAKTSPKPAVVETVTTAKPQQIQALMDEVTKQGNIVRELKAQKADKNEVAAEVAKLLDLKKQLAVAEGKPPEAPKGKKKK
B8: PITPNB (protein, UniProt P48739 1-271, looked up)
Phosphatidylinositol transfer …: MVLIKEFRVVLPCSVQEYQVGQLYSVAEASKNETGGGEGIEVLKNEPYEKDGEKGQYTHKIYHLKSKVPAFVRMIAPEGSLVFHEKAWNAYPYCRTIVTNEYMKDDFFIKIETWHKPDLGTLENVHGLDPNTWKTVEIVHIDIADRSQVEPADYKADEDPALFQSVKTKRGPLGPNWKKELANSPDCPQMCAYKLVTIKFKWWGLQSKVENFIQKQEKRIFTNFHRQLFCWIDKWIDLTMEDIRRMEDETQKELETMRKRGSVRGTSAADV

The molecules below were run on DYT1 patient plasma derived EVs (assay: Plasma-derived EV proteomics (ExoQuick ULTRA, DIA LC/MS/MS), DYT1 vs Healthy Controls). Conditions: Hs. Plasma EVs (DYT1/WT); significance of genotype difference.
Set-up: species or system human
Protocol: Data was obtained for extracellular vesicles using previously acquired samples. The ExoQuick® ULTRA EV Isolation System was used to fractionate and enrich EVs from plasma. Isolated plasma EV samples were then submitted to proteomic analysis by the Duke Proteomics and Metabolomics Core Facility (DPMCF). At the DPMCF, quantitative (LC/MS/MS) was performed on 500 ng of each sample, using an EvoSep One UPLC system coupled to a Thermo Orbitrap Astral high-resolution accurate mass tandem mass spectrometer (Thermo). Briefly, the sample was eluted directly from an Evotip which was subjected to a low organic wash and then subjected to an analytical separation using a 1.7 μm EvoSep 150 um ID×15 cm endurance (EveoSep) column running an SPD30 gradient from approximately 5 to 30% acetonitrile with 0.1% formic acid with a column temperature of 50 C. Data collection on the Orbitrap Astral mass spectrometer was performed in a data-independent acquisition (DIA) mode of acquisition with a r=240,000 (@m/z 200) full MS scan from m/z 380-980 with a target AGC value of 4e5 ions. Fixed DIA, windows of 4 m/z from m/z 380 to 980 DIA MS/MS scans were acquired in the Astral with a target AGC value of 5e4 and a max fill time of 6 ms. HCD collision energy setting of 27% was used for all MS2 scans.

| Molecule | -LogP |
| --- | --- |
| B1 | 2.267 |
| B2 | 1.461 |
| B3 | 1.85 |
| B4 | 2.179 |
| B5 | 3.322 |
| B6 | 1.411 |
| B7 | 1.714 |
| B8 | 1.575 |
